B1: Pistol ribozyme (parent)
chain: GGGUCGUUGUUCCAUAAUCGCGUGGAUAUGGCACGCAAGUUUCUACCGGGCACCGUAAAUGUCCGACUGGAGCCGUUCGGGCGGCUAUAAACAGACCUCAGGCCCGAAGCGUGGCGGCACCUGCCGCCGGUGGUAAAAAAGAUCGGAAGAGCACACGUCU

Variants of: B1
Assay: aptazyme ON/OFF ratio, guanine; higher = stronger switching; co-transcriptional cleavage with and without guanine

In order of rising “aptazyme ON/OFF ratio” value:
1. U7G U8A C13U  0.972
2. U7G U8A G9C U10C U11C C12A C13G  1
3. U7A U8C G9C U10C U11A C12A C13A  1.01
4. U7C G9C U11A C13U  1.02
5. U7C G9A U10A U11G C13G  1.02
6. U8G G9C U10C U11C C13U  1.03
7. G9C U10C U11C C12A C13A  1.03
8. U8G U10C U11C C13A  1.03
9. U7A U8C G9U U11C C13G  1.03
10. U7C G9C U10A U11C C12U C13U  1.03
11. U8A G9A U10C U11C C12G C13A  1.03
12. U7C G9C U10C U11G C12A C13U  1.04
13. U7C U8A G9A U11C C13A  1.04
14. U7A G9C U10C U11A C12U  1.04
15. U8C G9C U10C U11A C13U  1.04
16. U8A G9U U10C U11C C12U C13G  1.04
17. U7G U8A G9A U11G C12A C13A  1.05
18. U8G G9A U11G C13G  1.05
19. U7G U8G G9C U10A U11C C13G  1.05
20. U7C U8A G9C U10C U11A C12U C13G  1.05
21. U7C U8C G9U C12A C13A  1.05
22. U8A U10C C13A  1.05
23. U7C G9C C13G  1.05
24. U8G G9A U10C U11C C12G C13U  1.05
25. U7A U10C C13A  1.06
26. U7C U8C G9U U10G U11G C12G C13G  1.06
27. U7C U8A G9C U11G C12A  1.06
28. U8A G9C U10G U11C C13G  1.06
29. U8A U10A C13G  1.06
30. U7C U8G G9A U10A U11G C12A  1.06
31. U8A U10A U11C C12A C13G  1.06
32. U7C U8G U11G C12G C13A  1.07
33. U7C G9C U10A U11G C13G  1.07
34. G9C U10C U11A C12A C13G  1.07
35. U7C U8C U10A C12G C13U  1.07
36. U7A G9A U10A C12A C13G  1.07
37. U8A G9C U10C U11G C12A  1.07
38. U7C U8C G9U U10C U11G C13A  1.07
39. U8C G9C U10C U11G C12U  1.07
40. U7A G9C U10A U11A  1.07
41. U7A G9C U10C U11A C13A  1.07
42. U7A U8A G9A U10G U11C C12U C13A  1.07
43. U8G G9U U10C C12U C13G  1.08
44. U7G U8C G9U U10G U11A C13A  1.08
45. U8G G9U U10C U11A C12U C13U  1.08
46. U7G U8C G9C U10G C12U C13G  1.08
47. U7C U10G U11C C13A  1.08
48. G9U U10C U11C C12A  1.08
49. U7C U8C G9U U10G C12G C13A  1.09
50. U8C G9U U10C U11C C12A C13A  1.09
51. U7G G9A U10G C12G  1.09
52. U8G G9A U10A U11G C12A C13G  1.09
53. U7G G9A U10G U11G C12U C13A  1.09
54. U7G G9U U10C U11C C13U  1.09
55. U7G U8A U10C C13G  1.09
56. U7C U8A G9A U10C U11C C12A C13U  1.09
57. U7G U8G G9U U10G U11C C12A C13U  1.1
58. U7G U8G G9U U10G U11C C12A C13A  1.1
59. U7A G9A U10A U11C C12U  1.1
60. U8G U11A C12G C13A  1.1
61. U7A U8A G9A C13A  1.11
62. U7G G9A U10G U11C C12U  1.11
63. U7C G9U U10G C12G C13U  1.11
64. U7A U8C G9A U11A C12G C13A  1.11
65. U7G U8A U10A U11G C12G C13G  1.11
66. U7G G9A U10C U11A C12G C13A  1.11
67. U7C U8A G9U U10C U11C C12G C13G  1.11
68. U7C U8G U10C U11A C12U C13G  1.11
69. U7G U8A G9A U10C U11A C12A  1.12
70. U7G G9A U10A U11A C12U C13A  1.12
71. U7C U8A G9A U11G C12G C13A  1.12
72. U8G U10A U11G C12A C13U  1.12
73. U7G G9A U10A U11G C12A C13U  1.12
74. U7C U10A U11C C12A  1.12
75. U7C U8G U10G U11A C13G  1.13
76. U7C U8C U10A U11A C13G  1.14
77. U7G U8A G9A U11G C12G C13G  1.14
78. U7C U8C G9C U10A U11A C13G  1.14
79. U7A G9U U10C U11A C13A  1.14
80. U8A G9C C12G C13G  1.14
81. U7C U8C G9A U10A U11G C12G C13U  1.14
82. U7A G9A U10C C12G C13A  1.15
83. U7C U8A G9A U10C U11A C12U C13G  1.15
84. U7C U8G G9C C12U C13A  1.16
85. U7C U8A G9A U10A U11A C13A  1.16
86. U7A U8A G9U U10A C12U  1.16
87. U7A U8A U10G U11G C12A C13G  1.16
88. U7C U8C G9A U10G C12G C13G  1.16
89. U8C G9U U10C U11A C13U  1.16
90. U7G U8G G9C U11G C12G C13A  1.17
91. U8G G9A U10A C12A C13G  1.18
92. U7G U10A  1.18
93. U7A G9U U11A C12A C13U  1.19
94. U7A U8A G9U U10G U11A C12A C13A  1.19
95. U7C U8G G9A U10G U11G C13U  1.19
96. U7C U8A G9U U10A C12A  1.19
97. U7G G9A U10C U11G C12U  1.19
98. U7C U8C G9C U10A U11A C12G C13G  1.19
99. U7A U8G G9C U11C C12G C13A  1.19
100. U7G U8A G9A U10A U11A C12U C13U  1.19
101. U7C U8G G9U U10C U11G C13A  1.19
102. U7A U8G U10C C12G C13A  1.19
103. U7G U8C C12U C13G  1.19
104. U7C G9A C12G C13G  1.2
105. U7A U10A U11A C12U  1.2
106. U7C U8C G9A U10A U11A C12A C13A  1.2
107. U7A G9U C12U C13U  1.21
108. U7C U8G G9U U11G C13A  1.21
109. U7C U8A U10G C12A  1.21
110. U7C U8G G9C U10G U11A C12G C13G  1.21
111. U8G U10C U11C C12G  1.21
112. U7G U8G U10A U11A C12A C13G  1.22
113. U7C U8G G9U U10A U11A C12U C13A  1.22
114. U7G G9U U10G U11A C12U C13U  1.23
115. U7C U8A G9C U10C C13U  1.23
116. U7C U8A U10G U11C C12U C13G  1.23
117. U7C U8C G9U U10C U11C C12U  1.23
118. U7C U8A G9A U10G U11G C12G C13G  1.23
119. U7C U8G G9U U11A C12U C13G  1.24
120. U7C U8G G9U U10C U11A C12A C13U  1.24
121. U7A U8A U11C C12G C13A  1.25
122. U7C U8A G9U U10G C12U C13G  1.25
123. U7A U8G G9C U10A U11G C12G C13U  1.25
124. U7G G9U U11C C12G C13G  1.26
125. U7A U8C G9A U10C U11G C12G  1.27
126. G9U U10A C13G  1.27
127. U7G U8G G9C U10C C12G  1.28
128. U7C U10C U11C C12G  1.28
129. U10G C12U C13G  1.28
130. U7C U8G G9A U10C U11G C12U C13U  1.28
131. G9U U10A U11A C12A C13G  1.29
132. U7G G9C U10A U11C C12G C13U  1.29
133. U8C U10A U11G C13G  1.29
134. U7C U8C U10C U11A C12U C13U  1.29
135. G9A U11A C12A C13G  1.29
136. U7C U8C G9U U10A U11G C13U  1.31
137. U7G U8A U11C C12U C13A  1.32
138. U7A U8G U10A U11G C12U C13U  1.32
139. U7G U8A U10C C12U C13U  1.32
140. U7A U8G G9U U11C C12G C13G  1.32
141. U7G U8C G9U U10A U11G C12U  1.33
142. U8C U10C C12G C13U  1.33
143. U8A G9A C12U  1.33
144. U7C U8G G9A U10G U11G C12A  1.33
145. U7A U8A G9A U11G C12G C13G  1.33
146. U7A G9U U11A C12U  1.34
147. U7C U10C C12A C13U  1.34
148. U8G G9A U10G U11A C12A  1.34
149. U7G U8A U10C U11A C12U C13U  1.34
150. U7G U8G G9C C12G C13U  1.35
151. U8C G9U C12A  1.37
152. U7G U8C U10C C12G  1.37
153. U7G U8A U10G U11A C13U  1.4
154. U7A U8G U10C C13U  1.4
155. U7G G9U U10C U11C C12U  1.41
156. U7C U8A G9U U11A C12A C13U  1.41
157. U7C U8A G9U U10G C12U  1.41
158. U7A U8G G9A U10A U11G C12G C13G  1.46
159. U8C U10C C13U  1.51
160. U7C U8C G9A U10C U11G C12A C13U  1.52
161. U7A U8G G9U C12U  1.62
162. G9U U10A U11A C12U  1.64
163. G9A U10A C12A  1.74
164. U7C U8G U10C U11G C12U  1.97
165. U7G U8C G9U U10C U11A C12A C13U  2.1
166. G9U U10A  3.18
167. G9A U10G  3.45
